Measured values from PMC8424595 (The Journal of Biological Chemistry, 2021).
Substitutions are numbered along the chain they refer to. Where no end group is shown, it is not given here. fluorescein = fluorescein label at the N-terminus

Assays:
Ssa1 = Ssa1 (Saccharomyces cerevisiae, UniProt P10591); test: fluorescence polarization, displacement of ATP-FAM; assay type: binding; settings: 50 uM ATP, 1 uM Ssa1, 20 nM ATP-FAM, pH 7.5, 25 °C
Msi3 = biological target: T1, Msi3 (Candida albicans, UniProt Q96VB9); test: limited trypsin digest; assay type: binding; settings: 1 mM ATP, pH 7.5, 10 mM Mg(OAc)2, 25 °C
T1 sequence (Q96VB9 1-701): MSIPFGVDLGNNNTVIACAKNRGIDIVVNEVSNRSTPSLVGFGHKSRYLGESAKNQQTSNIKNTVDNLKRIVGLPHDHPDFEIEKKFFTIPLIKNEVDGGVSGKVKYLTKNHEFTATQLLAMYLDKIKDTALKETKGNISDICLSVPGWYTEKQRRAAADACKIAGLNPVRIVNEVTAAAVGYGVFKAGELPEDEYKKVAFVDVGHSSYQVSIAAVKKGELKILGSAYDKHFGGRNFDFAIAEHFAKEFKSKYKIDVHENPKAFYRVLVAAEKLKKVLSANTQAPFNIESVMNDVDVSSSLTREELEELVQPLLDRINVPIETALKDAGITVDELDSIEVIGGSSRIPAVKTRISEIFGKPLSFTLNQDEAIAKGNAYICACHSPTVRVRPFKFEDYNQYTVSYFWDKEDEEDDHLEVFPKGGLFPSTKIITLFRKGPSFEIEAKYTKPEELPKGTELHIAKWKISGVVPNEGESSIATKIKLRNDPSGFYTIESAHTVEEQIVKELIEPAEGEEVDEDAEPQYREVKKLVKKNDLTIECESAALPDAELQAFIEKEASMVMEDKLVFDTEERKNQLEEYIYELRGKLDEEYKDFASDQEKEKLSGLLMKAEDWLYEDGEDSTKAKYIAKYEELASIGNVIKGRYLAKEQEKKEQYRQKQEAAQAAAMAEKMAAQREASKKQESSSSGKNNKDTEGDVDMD

Msi3-Ssa1 complex = Msi3-Ssa1 complex (Candida albicans | S. cerevisiae, UniProt Q96VB9 1-701; P10591 1-642); test: native gel or EMSA
Msi3-Ssa1 complex, sequence (P10591 whole entry, one chain of several): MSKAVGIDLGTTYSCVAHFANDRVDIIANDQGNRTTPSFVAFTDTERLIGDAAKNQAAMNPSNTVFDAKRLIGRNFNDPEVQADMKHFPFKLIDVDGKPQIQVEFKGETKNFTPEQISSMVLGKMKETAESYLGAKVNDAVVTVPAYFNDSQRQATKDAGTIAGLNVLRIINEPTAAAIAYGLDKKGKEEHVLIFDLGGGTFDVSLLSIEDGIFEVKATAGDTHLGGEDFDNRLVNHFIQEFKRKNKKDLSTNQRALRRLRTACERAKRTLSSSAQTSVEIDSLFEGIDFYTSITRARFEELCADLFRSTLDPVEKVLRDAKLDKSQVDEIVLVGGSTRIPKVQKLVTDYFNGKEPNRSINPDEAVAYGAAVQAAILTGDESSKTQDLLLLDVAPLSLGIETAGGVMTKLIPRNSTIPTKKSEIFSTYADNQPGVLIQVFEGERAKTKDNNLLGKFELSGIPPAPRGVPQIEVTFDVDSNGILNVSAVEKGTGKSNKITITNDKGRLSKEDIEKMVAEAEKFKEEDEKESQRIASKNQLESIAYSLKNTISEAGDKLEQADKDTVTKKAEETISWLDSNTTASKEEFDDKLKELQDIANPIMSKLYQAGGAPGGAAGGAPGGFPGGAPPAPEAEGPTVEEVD

[1] = biological target: Ssa1, the major Hsp70 in the cytosol of S. cerevisiae (S. cerevisiae, UniProt P10591 1-642); test: native gel or EMSA
Ssa1, the major Hsp70 in the cytosol of S. cerevisiae, sequence (P10591 whole entry): as the sequence (P10591 whole entry, one chain of several) above

[2] = biological target: T2, Msi3, the sole Hsp110 in Candida albicans, wild type (Candida albicans, UniProt Q96VB9 1-701); test: fluorescence polarisation
T2 sequence (looked up): T1 sequence (Q96VB9 1-701)

Msi3 I164D = biological target: T3, Msi3 I164D (Candida albicans, UniProt Q96VB9 1-701, I164D); test: fluorescence polarisation
T3 sequence (looked up): T1 sequence (Q96VB9 1-701) with I164D

Msi3 R235E = biological target: T4, Msi3 R235E (Candida albicans, UniProt Q96VB9 1-701, R235E); test: fluorescence polarisation
T4 sequence (looked up): T1 sequence (Q96VB9 1-701) with R235E

Ssa1, sequence (P10591 2-642): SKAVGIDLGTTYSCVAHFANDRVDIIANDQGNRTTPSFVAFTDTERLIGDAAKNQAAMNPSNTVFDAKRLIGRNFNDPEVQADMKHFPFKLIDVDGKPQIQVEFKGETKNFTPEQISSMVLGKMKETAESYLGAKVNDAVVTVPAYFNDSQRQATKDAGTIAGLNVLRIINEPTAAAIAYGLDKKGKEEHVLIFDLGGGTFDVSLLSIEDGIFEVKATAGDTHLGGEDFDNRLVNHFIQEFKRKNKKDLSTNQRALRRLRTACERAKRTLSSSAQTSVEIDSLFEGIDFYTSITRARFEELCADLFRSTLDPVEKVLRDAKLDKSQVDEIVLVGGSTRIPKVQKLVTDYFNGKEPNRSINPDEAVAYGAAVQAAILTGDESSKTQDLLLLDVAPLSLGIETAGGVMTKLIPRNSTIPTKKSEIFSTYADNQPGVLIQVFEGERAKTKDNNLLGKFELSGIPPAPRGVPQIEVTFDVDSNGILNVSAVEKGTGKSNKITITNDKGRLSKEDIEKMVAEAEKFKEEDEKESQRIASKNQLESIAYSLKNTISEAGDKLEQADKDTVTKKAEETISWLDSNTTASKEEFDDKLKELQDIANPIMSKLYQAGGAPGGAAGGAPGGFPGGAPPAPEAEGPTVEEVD

Nc1ncnc2c1ncn2[C@@H]1O[C@H](COP(=O)(O)OP(=O)(O)OP(=O)(O)O)[C@@H](O)[C@H]1O [ATP]
fluorescence polarization, displacement of ATP-FAM (Ssa1): the bound ATP-FAM was slowly replaced by the unlabeled ATP | limited trypsin digest (ATP-induced conformational change) (Msi3): two signature proteolytic bands were observed in the presence of ATP for the WT Msi3

B1: NR peptide (peptide)
peptide: fluorescein-NRLLLTG
binding result (Msi3-Ssa1 complex): binds | binding result [1]: binds

B2: TRP2_181 peptide (peptide)
peptide: fluorescein-VYDFFVWLHYY
binding result [2]: binds | binding result (Msi3 I164D): binds | binding result (Msi3 R235E): binds
